This is an account of results in PMC12703665, “A Trifunctional, Rare-Earth Theranostic Chelator Platform to Enable Diagnostic Nuclear Imaging, Surgical Resection, and Radiotherapy” (Journal of the American Chemical Society, 2025).

Data set [1] deals with PC-3 PIP/flu (PSMA+/PSMA–) tumor xenografts. The data set can be described thus: in vivo. Particulars: 2 h post injection, n = 4, listed as [161Tb]TbIII-pepa-pic2-C-Hex-KuE. Here is the method: (§1) For in vivo evaluation, athymic nude mice-bearing bilateral PC-3 PIP/flu (PSMA^+/PSMA^–) tumor xenografts were used (Figure ).
(§2) 5.1.1 Urine metabolite analysis
(§3) Metabolite analysis was performed by analyzing aliquots of 100 µL of mouse urine collected during biodistribution studies. If the collected urine volume was less than 100 µL, 1X DPBS was added in order to bring it up to a final volume of 100 µL. In cases where the radioactivity present in urine decayed to levels too low for detection by HPLC, fractions eluted from the radioHPLC were collected every 30 seconds, and the amount of radioactivity was estimated via gamma counting (Hidex Automatic Gamma Counter). The chromatogram was then reconstructed by plotting the recorded counts per minute recorded for each fraction […]
(§4) 5.2 In vitro optical imaging
(§5) Tumor tissues were harvested from male, nude, athymic mice bearing xenografts from PC3-PIP (PSMA+) and PC3-flu (PSMA-) were fixed for (24) hours in 10% neutral buffered formalin, processed and embedded into paraffin blocks. Tissues were sectioned at 5µm, dried and then deparaffinized with a 25-minute oven bake at 60°C, followed by a series of xylene and alcohol washes
(§6) Antigens were prepared in PerkinElmer’s 1X Antigen Retrieval pH 9.0 (AR900250ML) for 8 minutes in the microwave. Tissue sections were blocked with 1X Antibody Diluent/Block buffer (Akoya).
(§7) Ab-PSMA, natEu-pepa-pic2-C-Hex-KuE and DAPI staining.
(§8) Tissues were stained with Ab-PSMA (Ventana 760-6076; 11.75 µg/mL; 100uL per slide) for 30 minutes at room temperature. Slides were washed with TBS-T and secondary goat anti-rabbit was applied for 10 minutes at room temperature. Slides were washed with TBS-T and Akoya’s Opal dye 520 was applied for 10 minutes at room temperature. Antigen retrieval and blocking steps were performed again.
(§9) An aqueous solution of natEu-pepa-pic2-C-Hex-KuE (10 µM) was diluted at 1:1 with 1X Diluent/Block (Akoya) and 100 µL were applied per slide for 2 hours at room temperature. For DAPI staining, DAPI working solution (Akoya) was applied for 10 minutes at room temperature before mounting with ProLong™ Gold Antifade Mountant. Slides were imaged by Nuance Multispectral Scope at 20x objective.
(§10) 5.3 In vivo biodistribution in PSMA +/- mice models, PET-CT and SPECT imaging.
(§11) Male, nude, athymic mice were purchased from Jackson Laboratory. Ten days preceding the imaging study, mice were implanted with 1 × 10^6 cells (PC-3 PIP on the right, PC-3 flu on the left shoulder) in 100 µL of a 1:2 mixture of DPBS 1X/matrigel matrix subcutaneously.
(§12) A solution of 100 µL of labeled radiotracer was administered via tail vein injection into 8–10-week-old male nude mice (n = 4 per cohort) bearing PSMA+/- tumors.
(§13) For biodistribution studies, mice were euthanized at 2 hours (n=4) post-injection of the radio tracer. Organs were extracted, intestinal content removed, and activity assessed via a gamma counter. Biodistribution analysis values are represented as percentage of injected dose per gram of organ weight (% ID/g).

Data set [2] is described as follows: in vivo. Particulars: male, athymic nude, mouse, intravenous, total radioactivity, 2 h post injection, n = 4. Here is the method:
as §1, §2, §3, §4, §5, §6, §7, §8, §9, §10, §11, §12, §13

The test system of data set [3] is PC-3 PIP/flu (PSMA+/PSMA–) tumor xenografts. Particulars: biodistribution 2 h p.i. and SPECT 0.5-25 h.
Method: Following radiochemical labeling and formulation in PBS, [^177Lu]­Lu-pepa-pic2-C-hex-KuE and [^161Tb]­Tb-pepa-pic2-C-hex-KuE were evaluated by single point biodistribution (2 h p.i.) and serial SPECT imaging at 0.5, 1, 1.5, 4, and 25 h in direct comparison with the clinically validated radiopharmaceutical [^177Lu]­Lu-PSMA-617 as well as [^161Tb]­Tb-PSMA-617 (Figure d–e, Supporting Information, Figures S52–S55, and Table S2).
Representative PET-CT (Y-86) or SPECT (Lu-177, Tb-161) images were acquired at different time points starting as early as 0.5 h and up to 25-hours post administration of radiotracer. Mice were initially anesthetized with isoflurane gas at 4% isoflurane in oxygen and maintained during scans at 2.0%. PET-CT and SPECT images were normalized to units of percentage of injected dose per cubic centimeter and presented as maximum intensity projected scan (MIPS) images.
PET-CT scans were acquired in a Siemens Inveon Hybrid MicroPET/CT Scanner (Siemens Medical Solutions USA, Inc., Knoxville, TN), and image processing and region of interest (ROI) analysis conducted using the Inveon Research Workstation analysis software. ROI analysis of the PET/CT images was used to estimate tracer uptake in major organs or tissues, and quantitative results are given as percentage of injected dose per cubic centimeter (%ID/cc). […]
For data set [4] the following is noted: 277 nm; ref 11 (SI); cited from earlier work.

Consider `COCCOCCOCCOc1ccc(C#Cc2cc(CN3CCN(Cc4cccc(C(=O)O)n4)CCN(Cc4cc(SC[C@H](N)C(=O)NCCCCCC(=O)NCCCC[C@H](NC(=O)N[C@@H](CCC(=O)O)C(=O)O)C(=O)O)cc(C(=O)O)n4)CC3)nc(C(=O)O)c2)cc1` [[161Tb]Tb-pepa-pic2-C-Hex-KuE, metal not drawn], for which, in data set [1], the Blood is 0.45 ± 0.06 % ID/g, the Bone worked out at 0.24 ± 0.03 % ID/g, the Heart is recorded as 0.21 ± 0.03 % ID/g and the Kidney is 17.89 ± 2.70 % ID/g. For the same compound, in data set [1], the “Large Intestine” value is listed as 0.98 ± 1.44 % ID/g, the Liver was 0.64 ± 0.09 % ID/g, the Lungs is recorded as 0.50 ± 0.07 % ID/g and the Muscle is reported as 0.11 ± 0.03 % ID/g. For the same compound, in data set [1], the “Small Intestine” value came to 0.33 ± 0.37 % ID/g and the Spleen turned out to be 0.50 ± 0.09 % ID/g. In addition, the “Tumor +” value in data set [1] (PSMA+ tumor) worked out at 7.33 ± 1.59 % ID/g. For the same compound, in data set [2] (PSMA- tumor, Tumor -), the tissue uptake at 2 h was 0.7 ± 1.59 %ID/g.

With `COCCOCCOCCOc1ccc(C#Cc2cc(CN3CCN(Cc4cccc(C(=O)O)n4)CCN(Cc4cc(SC[C@H](N)C(=O)NCCCCCC(=O)NCCCC[C@H](NC(=O)N[C@@H](CCC(=O)O)C(=O)O)C(=O)O)cc(C(=O)O)n4)CC3)nc(C(=O)O)c2)cc1` [[177Lu]Lu-pepa-pic2-C-Hex-KuE, metal not drawn], the “uptake of activity in the PSMA-expressing tumor” value in data set [3] was “persistent, statistically significant uptake”. For the same compound, the tissue uptake at 2 h in data set [2] (PSMA+ tumor, Tumor +, PSMA+ tumor) was found to be 4.57 ± 0.9 %ID/g; in data set [2] (blood) it was 0.3 ± 0.1 %ID/g; in data set [2] (bone), 0.25 ± 0.02 %ID/g; in data set [2] (heart) it was 0.19 ± 0.07 %ID/g; in data set [2] (kidney), 25.9 ± 8.51 %ID/g; in data set [2] (large intestine) it was 0.49 ± 0.27 %ID/g. Moreover, the tissue uptake at 2 h in data set [2] (liver) amounted to 0.5 ± 0.05 %ID/g; in data set [2] (lungs), 0.47 ± 0.26 %ID/g; in data set [2] (muscle) it was 0.11 ± 0.05 %ID/g; in data set [2] (small intestine), 0.33 ± 0.27 %ID/g; in data set [2] (spleen) it was 0.53 ± 0.24 %ID/g.

In the case of PSMA-617, the ε277 in data set [4] was 4268 M⁻¹ cm⁻¹.

For orientation: tissue uptake means the percentage of the injected dose found per gram of tissue.
